This test has as its target T1, human recombinant GIP receptor (human, UniProt P48546 22-466).
T1 construct: whole, on cells; Assayed as washed membranes of CHO-K1 cells expressing the receptor; also called hGIP receptor
T1 sequence (looked up): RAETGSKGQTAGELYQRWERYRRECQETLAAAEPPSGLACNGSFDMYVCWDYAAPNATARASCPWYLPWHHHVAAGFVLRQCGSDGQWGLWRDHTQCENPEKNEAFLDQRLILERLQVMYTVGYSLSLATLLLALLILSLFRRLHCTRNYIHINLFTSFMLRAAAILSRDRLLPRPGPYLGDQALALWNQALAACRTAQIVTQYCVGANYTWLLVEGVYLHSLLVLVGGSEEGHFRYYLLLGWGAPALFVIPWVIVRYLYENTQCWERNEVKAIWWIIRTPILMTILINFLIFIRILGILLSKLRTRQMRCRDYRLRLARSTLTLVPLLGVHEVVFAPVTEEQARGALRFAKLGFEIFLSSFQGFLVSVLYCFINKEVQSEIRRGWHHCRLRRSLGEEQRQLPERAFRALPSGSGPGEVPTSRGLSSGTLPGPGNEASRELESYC
Description: displacement of [125I]GIP, membranes of CHO-K1 cells expressing human GIP receptor. The procedure:
Membranes for in vitro receptor binding assays were prepared by homogenizing the CHO—K1 clonal cells expressing the human recombinant GIP receptor, with a Brinkman Polytron (setting 6, 15 sec), in ice-cold 50 mM Tris-HCl and then subjected to two centrifugations at 39,000 g for 10 minutes, with a resuspension in fresh buffer in between. For the assay, aliquots of the washed membrane preparations were incubated (100 minutes at 25° C. with 0.05 nM [¹²⁵1]GIP (2200 Ci/mmol) in 50 mM Tris-HCl, 0.1 mg/ml bacitracin, and 0.1% BSA. The final assay volume was 0.5 ml. The incubations were terminated by rapid filtration through GF/C filters (pre-soaked in 0.5% polyethylenimine) using a Brandel filtration manifold. Each tube and filter were then washed three times with 5-ml aliquots of ice-cold buffer.
Specific binding was defined as the total radioligand bound minus that bound in the presence of 1000 nM GIP.

[ ]: non-standard residue; d: D form. The star is where a group is joined. Desaminotyrosyl = O=C(CCc1ccc(O)cc1)*; Hyp = O=C(O)[C@@H]1C[C@@H](O)CN1; Pip = O=C(O)[C@@H]1CCCCN1; Ac6c = NC1(C(=O)O)CCCCC1

As for YXEGTFISDYXIAXDKIHQQDFVNWLLAQKGKKNDWKHNITQH (3Cl-Tyr at 1; Aib at 2; A5c at 11 and 14) [(3Cl-Tyr^1, Aib^2, A5c^11, 14, His^43)hGIP(1-43)-OH], the inhibitory constant (Ki) came out at 0.78 nM.

Consider XXEGTFISDYXIAMDKIHQQDFVNWLLAQKGKKNDWKHNITQH (7HO-Tic at 1; Aib at 2; A5c at 11) [(7HO-Tic^1, Aib^2, A5c^11, His^43)hGIP(1-43)-OH], for which the Ki was determined as 4.82 nM.

With YXEGTFISDYXIAXDKIHQQDFVNWLLAQKGKKNDWKHNITQH (3Br-Tyr at 1; Aib at 2; A5c at 11 and 14) [(3Br-Tyr^1, Aib^2, A5c^11, 14, His^43)hGIP(1-43)-OH], the Ki came to 0.92 nM.

On to XXEGTFISDYXIAXDKIHQQDFVNWLLAQKGKKNDWKHNITQH (3MeO-Tyr at 1; Aib at 2; A5c at 11 and 14) [(3MeO-Tyr^1, Aib^2, A5c^11, 14, His^43)hGIP(1-43)-OH], for which the Ki turned out to be 9.34 nM.

For the molecule YXEGTFISDYXIAXDKIHQQDFVNWLLAQKGKKNDWKHNITQH (3Br-Tyr at 1; Aib at 2; A5c at 11; Nle at 14) [(3Br-Tyr^1, Aib^2, A5c^11, Nle^14, His^43)hGIP(1-43)-OH], the Ki came out at 1.09 nM.

On to XXEGTFISDYXIAMDKIHQQDFVNWLLAQKGKKNDWKHNITQH (3MeO-Tyr at 1; Aib at 2; A5c at 11) [(3MeO-Tyr^1, Aib^2, A5c^11, His^43)hGIP(1-43)-OH], for which the Ki is 3.9 nM.

For the molecule XXEGTFISDYXIAXDKIHQQDFVNWLLAQKGKKNDWKHNIXQH (3MeO-Tyr at 1; Aib at 2; A5c at 11, 14 and 41) [(3MeO-Tyr^1, Aib^2, A5c^11, 14, 41-His^43)hGIP(1-43)-OH], the Ki is 6.4 nM.

On to YXEGTFISDYXIAXDKIHQQDFVNWLLAQKGKKNDWKHNITQH (3Cl-Tyr at 1; Aib at 2; A5c at 11; Nle at 14) [(3Cl-Tyr^1, Aib^2, A5c^11, Nle^14, His^43)hGIP(1-43)-OH], for which the Ki was 0.76 nM.

With XXEGTFISDYXIAMDKIHQQDFVNWLLAQKGKKNDWKHNITQH (hTyr at 1; Aib at 2; A5c at 11) [(hTyr^1, Aib^2, A5c^11, His^43)hGIP(1-43)-OH], the Ki is 9.42 nM.

Consider FXEGTFISDYXIAMDKIHQQDFVNWLLAQKGKKNDWKHNITQH (4CN-Phe at 1; Aib at 2; A5c at 11) [(4CN-Phe^1, Aib^2, A5c^11, His^43)hGIP(1-43)-OH], for which the Ki was found to be 5.12 nM.

For XXEGTFISDYXIAMDKIHQQDFVNWLLAQK (4Hppa at 1; Aib at 2 and 11; C-terminal amide) [(4Hppa^1, Aib^2, 11)hGIP(1-30)-NH2], the Ki is 15.4 nM.

With [Desaminotyrosyl]A[Hyp]GTF[Ac6c]SDYSIAMDKIHQQDFVNWLLAQKGKKNDWKHNITQ-OH [(4Hppa^1, 4Hyp^3, A6c^7)hGIP(1-42)-OH], the Ki is 251 nM.

Turning to XXEGTFISDYSIAMDKIHQQDFVNWLLAQK (4Hppa at 1; Aib at 2; C-terminal amide) [(4Hppa^1, Aib^2)hGIP(1-30)-NH2], the Ki was found to be 1.58 nM.

Consider [Desaminotyrosyl]A[Pip]GTF[Ac6c]SDYSIAMDKIHQQDFVNWLLAQKGKKNDWKHNITQ-OH [(4Hppa^1, hPro^3, A6c^7)hGIP(1-42)-OH], for which the Ki is 707 nM.

XXEGTFISDYSIAXDKIHQQDFVNWLLAQK (4Hppa at 1; Aib at 2; Nle at 14; C-terminal amide) [(4Hppa^1, Aib^2, Nle^14)hGIP(1-30)-NH2]: the Ki came to 2.95 nM.

Source of the values: patent US20150175665A1 (IPSEN PHARMA S A S, published 2015).
